Measurements reported in paper PMC9253517 (The Journal of Experimental Medicine, 2022).
Changes are numbered by the printed parent chain.

Key:
[1] = biological target: T1, SARS-CoV-2 Wuhan-Hu-1 RBD (SARS-CoV-2, Wuhan-Hu-1 (GenBank …, UniProt P0DTC2)); test: cell-based or functional assay
[2] = biological target: T1, SARS-CoV-2 Wuhan-Hu-1 RBD; test: BLI; settings: both partners purified

B1: JR052 (antibody, V domains shown)
VH: QVQLVQSGAEVKKPGASVKVSCEASGYTFTTYHMHWVRQAPGQGLEWMGIINPSRGSANYAQKFQGRVTMTRDTSTRTVYMELSSLRSEDTALYYCARDPNYYDSSGHKIEYFQHWGQGTLVTVSS
VL: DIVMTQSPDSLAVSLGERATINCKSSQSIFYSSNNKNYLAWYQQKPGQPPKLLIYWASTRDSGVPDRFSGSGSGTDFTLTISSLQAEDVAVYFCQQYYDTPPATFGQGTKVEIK
**Q.** With B1 as the binder, how does the “neutralisation IC50, Wuhan-Hu-1 pseudovirus” value (“neutralisation IC50” below) [1] read?
**A.** The value was 0.0239 µg/mL.

**Q.** Does B1 bind [2]?
**A.** Result: binds

B2: JR170 (antibody, V domains shown)
VH: QVQLVQSGAEVRKPGASVKVSCKASRYTFTNNYIHWVRQAPGQGLEWMGIINPSGGSTTYAQKFQGRVTMTGDTSTSTVYMELSSLRSEDTAVYYCARGGFVPAATSYFDYWGQGTLVTVS
VL: QSALTQPRSVSGSPGQSVTISCTGTSSDVGGYNYVSWYQQHPGKAPKLMIYDVSKRPSGVPDRFSGSKSGNTASLTISGLQAEDEADYYCCSYAGSYTLVFGGGTKLTVL
**Q.** Which results are given for B2?
**A.** neutralisation IC50, Wuhan-Hu-1 pseudovirus [1]: > 1 µg/mL; binding result [2]: binds

B3: JR211 (antibody, V domains shown)
VH: QVQLQESGPGLVKPSGTLSLTCAVSGGSISSSHWWNWVRQPPGKGLEWIGEIYHSGSTNYSPSLKSRVTISVDKSKNQFSLKLSSVTAADTAVYYCAKSMRAGPNDGFDYWGQGTLVTVSS
VL: B2 VL with R8A, V18I, K55N, P61S, D62N, C91S, A94T, G95S, Y97S, L99V
**Q.** Which “neutralisation IC50” value [1] does the source give for B3 here?
**A.** The value was greater than 1 µg/mL.

**Q.** Does B3 bind [2]?
**A.** Result: binds

B4: JR189 (antibody, V domains shown)
VH: EVQLVESGGGLIQPGGSLRLSCAASGFNVNSNYINWVRQAPGKGLEWVSVIYSSGKTYFADSVKGRFTISRDNSKNTLYLQMNILRAEDTAVYYCATTTTVTPIWGQGTLVTVSS
VL: DIQMTQSPSALSASVGDRVTFTCRASQDIRNYLGWYQQKPGEAPKLLVYAASSLQSGVPSRFSGSGSGTDFTLTISSLQPEDFATYYCLQDYNYPWTFGQGTKVEIK
**Q.** What does the source list for B4?
**A.** neutralisation IC50, Wuhan-Hu-1 pseudovirus [1]: 0.0077 µg/mL; binding result [2]: binds

B5: JR081 (antibody, V domains shown)
VH: QVQLVQSGAEVKKPGASVKVSCKASGYIFTAYYMHWVRQAPGQGLEWMGWINPMSGATNYAQRFQGRVTMTRVTMTRDTSITTAYMELSRLRSDDTAVYYCARVNHIVGVTSSDPVYGMDVWGQGTTVTVSS
VL: QSALTQPASVSGSPGQSITISCTGTSSDVGGYKYVSWYQQHPGKAPKLMIYEVSNRPSGVSSRFSGSKSGYTASLTISGLQAEDEADYYCSSYTNSPTLFYVFGTGTKVTVL
**Q.** B5 was tested. Which “neutralisation IC50” value [1] did it give?
**A.** The value was 0.00347 µg/mL.

**Q.** Does B5 bind [2]?
**A.** Result: binds

B6: JR308 (antibody, V domains shown)
VH: QVQLVESGGGVVQPGRSLRLSCAASGFTFSSYGMHWVRQAPGKGLEWVAVISYDGSNKYYADSLKGRFTISRDNSKNTLYLQMNSLRAEDTAVYYCAKEGRGTYYYGSGSCPGGYWGQGTLVTVSS
VL: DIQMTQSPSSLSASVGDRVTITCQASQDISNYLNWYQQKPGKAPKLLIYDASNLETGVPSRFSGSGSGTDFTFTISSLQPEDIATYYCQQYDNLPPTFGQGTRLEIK
**Q.** Which “neutralisation IC50” value [1] does the source give for B6 here?
**A.** Its value is greater than 1 µg/mL.

**Q.** Does B6 bind [2]?
**A.** Result: binds

B7: JR070 (antibody, V domains shown)
VH: QLVQSGPEVKKPGTSVKVSCKASGFTFSSSAMQWVRQARGQGLEWIGWIVVGSGNTNYAQKFQERVTISRDMSTSTAYMEVSSLTSEDAAVYYCAAPNCSRTTCSDGFDIWGQGTMVTVSS
VL: EIVLTQSPGTLSLSPGERATLSCRASQSVRSSYLAWYQQKPGQAPRLLIYGASSRATGIPDRFSGSGSGTDFTVTISRLEPEDFAVYYCQQYGNSPWTFGQGTKVEIK
**Q.** With B7 as the binder, how does the “neutralisation IC50” value [1] read?
**A.** Its value is 0.00193 µg/mL.

**Q.** Does B7 bind [2]?
**A.** Result: binds

B8: JR311 (antibody, V domains shown)
VH: QVQLVQSGAEVKKPGASVKVSCKTSGYTFTNYFVHWVRQAPGQGLEWMGWINPNSGGTNYAQTFQAWVTMTRDTSINTAYMELSRLTSDDTAVYYCARDLSFSIVRGVMGYWGQGTLVTVSS
VL: not shown
**Q.** Which results are given for B8?
**A.** neutralisation IC50, Wuhan-Hu-1 pseudovirus [1]: > 1 µg/mL; binding result [2]: binds

B9: JR062 (antibody, V domains shown)
VH: EVQLVESGGGLIQPGGSLRLSCAASGFSVSNNYMNWVRQAPGKGLEWLSVIYNAGTTYYAGSVKGRFTISKDNSKNTLYLQLNSLRPEDTAVYYCARGHTGVAALMTGAFDIWGQGTMVTVSS
VL: QSALTQPPSASGSPGQSVTISCTGTSSDVGGYDYVSWYQQYPGKAPKLMIYEVSKRPSGVPDRFSGSKSGNTASLTVSGLQAEDEADYYCSSYAGNNNWVFGGGTKLTVL
**Q.** How did the “neutralisation IC50” value [1] turn out when B9 was run?
**A.** The value was 0.0029 µg/mL.

**Q.** Does B9 bind [2]?
**A.** Result: binds

B10: JR312 (antibody, V domains shown)
VH: QVQLVQSGAEVKKPGSSVKVSCKASGAKPSGVSFSSYAFNWVRRAPGQGLEWVGGIIPIFGPANYAQKFQGRVTITADESTSTAYMELSSLSSEDTAIYYCARERYCNSPDCYSWERGDFDVWGQGTMVTVSS
VL: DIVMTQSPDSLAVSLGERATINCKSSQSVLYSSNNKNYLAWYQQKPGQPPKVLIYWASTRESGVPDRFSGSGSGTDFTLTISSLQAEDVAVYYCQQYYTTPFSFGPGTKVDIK
**Q.** What does the source list for B10?
**A.** neutralisation IC50, Wuhan-Hu-1 pseudovirus [1]: 0.0271 µg/mL; binding result [2]: binds

B11: JR057 (antibody, V domains shown)
VH: VQLVESGGGVVQPGRSLRLSCAASGFTFSSYAMHWVRQAPGKGLEWVALISYDGNNKYYADSVKGRFTVSRDNSKNTLFLQMNSLRAEDTAVYYCARDNEVSAAFDFWGQGTMVTVSS
VL: EIVLTQSPGTLSLSPGERATLSCRASQSLSSTYLAWYQHKPGQAPRLLIYAASSRATDIPDRFSGSGSGTDFTLTISRLEPEDFAVYYCQQYGGSPMCSFGQGTKLEIK
**Q.** With B11 as the binder, how does the “neutralisation IC50” value [1] read?
**A.** Its value is 0.0142 µg/mL.

**Q.** Does B11 bind [2]?
**A.** Result: binds

B12: JR171 (antibody, V domains shown)
VH: QVQLVQSGAEVKKPGASVKVSCKASGYTFTSYYMHWVRQAPGQGLEWMGIINPSGGSTSYAQKFQGRVTMTRDTSTSTVYMELSSLRSEDTAVYYCARAYDSAPGFDYWGQGTLVTVSS
VL: DIQLTQSPSFLSASVGDRVTITCRASQGISSYLAWYQQKPGKAPKLLIYAASTLQSGVPSRFSGSGSGTEFTLTISSLQPEDFATYYCQQLNSYPSITFGQGTRLEIK
**Q.** How did the “neutralisation IC50” value [1] turn out when B12 was run?
**A.** The value was greater than 1 µg/mL.

**Q.** Does B12 bind [2]?
**A.** Result: binds

B13: JR235 (antibody, V domains shown)
VH: EVQLVESGGGLVQPGRSLRLSCAASGFTFDDYAMHWVRQAPGKGLEWVSGISWNSGRIDYADSVKGRFTISRDNAKNSLYLQMNSLRAEDTALYYCAKVSTVTTYLMGYFDLWGRGTLVTVSS
VL: EIVMTQSPATLSVSPGERATLSCRASQSVSSNLAWFQQKPGQAPRLLIYGASTRATGIPARFSGSGSGTEFILTISSLQSEDFAVYYCQLYSYWPPESSFGQGTKLEIK
**Q.** B13 was tested. Which “neutralisation IC50” value [1] did it give?
**A.** The value was greater than 1 µg/mL.

**Q.** Does B13 bind [2]?
**A.** Result: binds

B14: JR318 (antibody, V domains shown)
VH: QVQLVQSGAEVKSPGASVKVSCKASGYTFTSYDINWVRQATGQGLEWMGWMNPNSGNTDYAQKFQGRVTMTRDTSISTAYMELSSLRSEDTAIYYCARRSGYYNFGVGTRTNYYYYGMDVWGQGTTVTVSS
VL: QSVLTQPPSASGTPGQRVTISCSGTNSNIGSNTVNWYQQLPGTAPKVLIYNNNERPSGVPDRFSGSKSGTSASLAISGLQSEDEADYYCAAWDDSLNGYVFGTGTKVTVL
**Q.** For B14, which “neutralisation IC50” value [1] is on record?
**A.** The value was 0.00652 µg/mL.

**Q.** Does B14 bind [2]?
**A.** Result: binds

B15: JR307 (antibody, V domains shown)
VH: EVQLVESGGGLVQPGGSLRLSCEVSGFTFSNYWMHWVRQAPGKGLVWVSRVDSDGNSTTYADSVNGRFTISRDNAKNTLYLQMKSLRAEDTAIYYCTRDCENCRHWYFDLWGRGTLVTVS
VL: SYELTQPPSVSVTPGQTARIACGGNNIGTKGVHWYQQRPGQAPVLVVYDDENRPSGIPERFSGSNSGDTATLIITWVEAGDEADYYCQVWHGLSDHPVFGGGTRLTVL
**Q.** Which results are given for B15?
**A.** neutralisation IC50, Wuhan-Hu-1 pseudovirus [1]: > 1 µg/mL; binding result [2]: binds

B16: JR202 (antibody, V domains shown)
VH: VQLVESGGGVVQPGRSLRLSCAASGFTFTTYTLHWVRQAPGKGLEWVAVISYDGNNKYYADSVKGRFTISRDDSKNTLYVQMNSLRAEDTAVYYCARSIGYYTGVDYWGQGTLVTVSS
VL: NFMLTQPHSVSESPGKTVTISCTGSSGSIAINYVQWYQQRPGSAPITVIYEDNQRPSGVPDRFSGSIDSSSNSASLTISGLKTEDEADYYCQTYHSSTWVFGGGTKLTVL
**Q.** B16 was tested. Which “neutralisation IC50” value [1] did it give?
**A.** Its value is 0.00354 µg/mL.

**Q.** Does B16 bind [2]?
**A.** Result: binds

B17: JR316 (antibody, V domains shown)
VH: QVQLVQSGAEVKKPGSSVKVSCKASGGSFSTHGISWVRQAPGQGLEWMGGIIPISGRANYAQNFQGRVTITADESTKTAYMELSSLRSEDTAVYYCARDDRFCDTTKCYGLWFDPWGQGTLVTVSS
VL: DIQMTQSPSSLSASVGDRVTITCRASQSISTYLNWYQQKPGKAPKVLIYAASTLQSGVPSRFSGSGSGTDFTLTISSLQPEDFATYYCQQTYSSPRAFGQGTKVEIK
**Q.** For B17, which “neutralisation IC50” value [1] is on record?
**A.** Its value is 0.0108 µg/mL.

**Q.** Does B17 bind [2]?
**A.** Result: binds

B18: JR097 (antibody, V domains shown)
VH: QVQLVQSGAEVKKPGASVKVSCKTSAYTFTTYFMHWVRQAPGQGLEWMGIINPSGGSTRYAQKFQGRVTMTRDTSTSTVYMELSGLRSEDTAVYYCARERRPGFYDSSGYSFDYWGQGTLVTVSS
VL: SYELTQPPSVSVAPGKTARITCGGNNIGSKSVHWYQQKPGQAPVLVVYDDSDRPSGIPERFSGSNSGNTATLTISRVEAGDEADYYCQVWDSSSDPVVFGGGTKLTVL
**Q.** B18 was tested. Which “neutralisation IC50” value [1] did it give?
**A.** Its value is greater than 1 µg/mL.

**Q.** Does B18 bind [2]?
**A.** Result: binds

B19: JR179 (antibody, V domains shown)
VH: QVQLVQSGAEVKKPGASVKVSCKASGYTFSSFAISWVRQAPGQGLEWMGWISAYNGNTNYAQNLQGRVTMTTDTSTSTVYMELRSLRSDDTAVYYCAREAGLTGNLDYWGQGTLVTVSS
VL: SYELTQPPSVSVAPGQTARITCGGNNIGSKNVHWYQQKPGQAPVVVVYDDSDRPSGIPERFSGSNSGNTATLTISRVEAGDEADYYCQVWDSRSYHHVVFGGGTKLTVL
**Q.** B19 was tested. Which “neutralisation IC50” value [1] did it give?
**A.** The value was greater than 1 µg/mL.

**Q.** Does B19 bind [2]?
**A.** Result: binds

B20: JR162 (antibody, V domains shown)
VH: EVQLLESGGGLVQQGGSLRLSCAASGFTFSGHAMSWVRQAPGEGLEWVSGISDGGGSTYYADSVRGRFTISRDNSKNTLYLQMNSLRAEDTAVYYCARRGGYCTNTICYTRYYYMDVWGKGTTVTVSS
VL: DIQMTQSPSSVSASVGDRVTITCRSSQDISSWLAWYQQKPGKAPKLLIFAASSLQSGVPSRFSGSGSGTDFTLTISSLQPEDFATYYCQQANSFPLTFGGGTKVEI
**Q.** With B20 as the binder, how does the “neutralisation IC50” value [1] read?
**A.** Its value is 0.00455 µg/mL.

**Q.** Does B20 bind [2]?
**A.** Result: binds

B21: JR172 (antibody, V domains shown)
VH: EVQLVESGGGLVQPGRSLRLSCAASGFTFDDYAMHWVRQTPGKGLEWVSSISWNSGSIGYADSVKGRFTISRDNAKNSLYLQMNSLRAEDTALYYCAKDKRIDYSNYGGGFDHWGQGTLVTVSS
VL: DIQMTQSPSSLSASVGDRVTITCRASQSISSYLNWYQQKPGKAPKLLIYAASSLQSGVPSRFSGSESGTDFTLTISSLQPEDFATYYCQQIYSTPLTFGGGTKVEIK
**Q.** What does the source list for B21?
**A.** neutralisation IC50, Wuhan-Hu-1 pseudovirus [1]: > 1 µg/mL; binding result [2]: binds
